Laboratory results taken from the RNAGym collection of RNA variant scans (doi:10.7554/elife.90254).

B1: OR4K15 (parent)
chain: GUUAACGGUCAUAGGCCAUGGAAACUAGGAGCACCAUUUCGCUGCCAGUGAAGAAAUGAACAAAGAAAAUCUGGGCCAGGCAGGCAUCAAAAGAAAUAGUCUUGCGCUCAACCAGAAAGUCUGUAAUCAUUUUAAGGGUA

Variants of: B1
Assay: self-cleavage, relative activity (ratio to wild type); higher = more cleavage; in vitro, sequencing; the parent is a self-cleaving ribozyme

Going from U57G C81U to A54U A56U, the self-cleavage rises from 0.29 to 1.8.

Going from A56G A118C to A55G A68C, the self-cleavage rises from 0.64 to 2.11.

Compared with A55G A68U, A55G A68G is higher in self-cleavage: 1.2 for the first, 1.23 for the second.

Compared with U57A U70A, A54G G123U is higher in self-cleavage: 0.62 for the first, 1.75 for the second.

Going from U57C G106U to A56G U130C, the self-cleavage rises from 0.03 to 1.63.

Compared with A54U A116U, A55G A62G is higher in self-cleavage: 0.42 for the first, 0.75 for the second.

Going from A56G A94G to A56G C113U, the self-cleavage falls from 1.29 to 0.08.

Going from A55U A110G to U57C U130C, the self-cleavage rises from 0.23 to 0.78.

Compared with U57A U139C, A54U U130C is higher in self-cleavage: 0.25 for the first, 1.62 for the second.

First: A56G A90U
Second: A56G A90C
The self-cleavage of the first is higher: 1.83 for the first, 0.21 for the second.

Going from A55G A110G to A55G U139A, the self-cleavage rises from 0.12 to 1.49.

Compared with A55G U139C, A56U U132C is lower in self-cleavage: 1.72 for the first, 1.11 for the second.

First: U57C A66G
Second: A56C A129G
The self-cleavage of the first is lower: 0.31 for the first, 1.35 for the second.

Compared with A56C A78U, A55G U133C is higher in self-cleavage: 0.35 for the first, 1.83 for the second.

Compared with U57C A82C, U57C A82U is lower in self-cleavage: 0.23 for the first, 0.21 for the second.

First: A55G A94G
Second: U57A A98U
The self-cleavage of the first is lower: 1.39 for the first, 1.47 for the second.

Going from A55G A91U to A56G C88U, the self-cleavage falls from 2.07 to 1.72.

Going from U57G G137C to A55G A82C, the self-cleavage falls from 1.71 to 0.16.

First: A56U U87C
Second: A56U A60G
The self-cleavage of the first is higher: 1.05 for the first, 0.43 for the second.

First: A56G C105U
Second: A56U A63G
The self-cleavage of the first is lower: 0.12 for the first, 2.61 for the second.

Going from A55G G137A to U57A A89U, the self-cleavage falls from 1.82 to 0.95.

Going from A54U A95G to A54U C109U, the self-cleavage falls from 2.47 to 0.39.

Going from A54U A90G to A55G G65A, the self-cleavage rises from 0.85 to 1.07.

Going from A56G A111U to A54U A118G, the self-cleavage rises from 0 to 0.95.

First: U57C U97C
Second: U57G A110G
The self-cleavage of the first is higher: 1.09 for the first, 0.17 for the second.

First: A54U A60G
Second: U57C A63G
The self-cleavage of the first is lower: 0.97 for the first, 1.05 for the second.

Going from A56G G136A to G58A A116G, the self-cleavage falls from 1.69 to 0.29.

Going from A55G C88U to A55U A94G, the self-cleavage rises from 1.02 to 1.59.

Going from A55U A94U to U57A U122C, the self-cleavage rises from 0.43 to 0.75.

Going from U57A G138A to G58A A62G, the self-cleavage falls from 1.33 to 1.01.

Going from U57C G74U to U57C G74A, the self-cleavage falls from 0.39 to 0.28.

First: A54G U120G
Second: A54G U97C
The self-cleavage of the first is higher: 2.09 for the first, 1.37 for the second.

First: A55U G58U
Second: A55G A66U
The self-cleavage of the first is higher: 1.98 for the first, 0.64 for the second.

First: A55G A92G
Second: A54G U131C
The self-cleavage of the first is lower: 0.67 for the first, 1.3 for the second.

Compared with A55G G123U, A55G G123A is lower in self-cleavage: 2.01 for the first, 1.61 for the second.

First: U57A U102G
Second: A54U A96G
The self-cleavage of the first is lower: 0.16 for the first, 1.68 for the second.

Going from A56G U97C to U57A A64G, the self-cleavage rises from 0.4 to 1.32.

Going from A56U A68G to A56G A82C, the self-cleavage falls from 0.34 to 0.15.

Compared with A56G A82G, A56G A82U is lower in self-cleavage: 0.56 for the first, 0.23 for the second.

First: A55G G136A
Second: A55G C101U
The self-cleavage of the first is higher: 1.36 for the first, 0.38 for the second.

Going from U57A A111G to A56G A66U, the self-cleavage rises from 0.02 to 0.92.

Compared with U57A U130C, A56G A89G is higher in self-cleavage: 0.81 for the first, 1.5 for the second.

First: A56G A64G
Second: U57C A91G
The self-cleavage of the first is higher: 1.44 for the first, 0.84 for the second.

First: U57C U70A
Second: A55U A96G
The self-cleavage of the first is lower: 0.68 for the first, 1.61 for the second.

Compared with A55G A111U, A55G G138A is higher in self-cleavage: 0.21 for the first, 1.54 for the second.

Compared with A54G U127A, U57A A110C is lower in self-cleavage: 2.16 for the first, 0.17 for the second.

Going from U57A A110U to A56G U122A, the self-cleavage falls from 1 to 0.63.

Compared with U57C A62U, A56C A68G is lower in self-cleavage: 2.11 for the first, 1.59 for the second.

First: A55G A56G
Second: U57C A90U
The self-cleavage of the first is lower: 1.31 for the first, 1.51 for the second.

First: U57C A90G
Second: A56G U131C
The self-cleavage of the first is lower: 0.97 for the first, 1.47 for the second.

First: A56G U131A
Second: A54U A67G
The self-cleavage of the first is lower: 0.6 for the first, 0.82 for the second.

Compared with A56U U122A, A56G U132C is lower in self-cleavage: 1.31 for the first, 0.6 for the second.

Compared with A56U A69U, A54U U132C is higher in self-cleavage: 0.67 for the first, 2.02 for the second.

First: U57C C105G
Second: A54U U122C
The self-cleavage of the first is lower: 0.01 for the first, 1.27 for the second.

First: A54U U122A
Second: A56G U87C
The self-cleavage of the first is higher: 1.45 for the first, 0.74 for the second.

Going from A56G U87G to U57G A94G, the self-cleavage rises from 0.32 to 1.41.

Compared with A55U A82U, A54G U122G is higher in self-cleavage: 0.28 for the first, 2.7 for the second.

Compared with A55C U102C, A55C A82G is lower in self-cleavage: 1.41 for the first, 0.53 for the second.

Compared with A55G G99A, A55G A140U is higher in self-cleavage: 0.16 for the first, 0.81 for the second.

First: A54U A91G
Second: A55G U127C
The self-cleavage of the first is higher: 0.86 for the first, 0.82 for the second.

First: A55G U108C
Second: A55U U103C
The self-cleavage of the first is lower: 0.01 for the first, 0.91 for the second.

Compared with A56G A63G, A56G A69G is higher in self-cleavage: 0.85 for the first, 1.08 for the second.

First: U57C C101A
Second: A55G U130C
The self-cleavage of the first is lower: 0.1 for the first, 0.96 for the second.

Going from A56C A62G to A55G G74A, the self-cleavage falls from 0.6 to 0.31.

First: A56G A60G
Second: A54G G137U
The self-cleavage of the first is lower: 0.63 for the first, 1.44 for the second.

First: U57C G137U
Second: U57C G137C
The self-cleavage of the first is higher: 2.18 for the first, 0.73 for the second.

Going from U57G A140U to U57C U131C, the self-cleavage falls from 1.23 to 0.94.

First: U57C U87A
Second: A56G U57C
The self-cleavage of the first is lower: 0.98 for the first, 1.27 for the second.

Going from A55G A67U to A55G A67G, the self-cleavage falls from 1.53 to 1.21.

Going from U57C U108A to U57A A140G, the self-cleavage rises from 0.02 to 1.3.

First: U57G U100C
Second: A54G U133C
The self-cleavage of the first is higher: 2.26 for the first, 1.88 for the second.

Going from A55C U72C to U57C A125G, the self-cleavage rises from 0.24 to 0.29.

Going from U57A A60G to A56U A66U, the self-cleavage falls from 1.19 to 0.42.

First: U57A A125G
Second: A56C A117G
The self-cleavage of the first is lower: 0.52 for the first, 1.17 for the second.

First: U57G A135G
Second: U57G A90G
The self-cleavage of the first is higher: 1.74 for the first, 0.88 for the second.

First: A55U U57C
Second: A55U U127A
The self-cleavage of the first is lower: 1.76 for the first, 2.63 for the second.

First: A55U U127C
Second: A55U U100A
The self-cleavage of the first is higher: 0.93 for the first, 0.82 for the second.

Compared with A55U U100C, A54U U100C is lower in self-cleavage: 2.69 for the first, 1.43 for the second.

Going from A56C A66G to A54U A89G, the self-cleavage rises from 0.72 to 1.42.

Going from A54U A89C to U57A U97C, the self-cleavage rises from 1.5 to 1.78.

Going from A56G A126U to U57A U87C, the self-cleavage falls from 0.95 to 0.92.

First: U57A A114U
Second: U57A A114G
The self-cleavage of the first is lower: 0.03 for the first, 0.38 for the second.

Compared with A55U A111C, A56G G75C is higher in self-cleavage: 0.06 for the first, 0.19 for the second.

U57C A86G showed a self-cleavage of 0.94.
